The values that follow come from patent US9012606B2, “In vivo half life increased fusion protein or peptide maintained by sustained in vivo release, and method for increasng in vivo half-life using same” (Alteogen, Inc., priority 2009, dated 2015).

Substitutions are numbered along the chain they refer to. Names may count otherwise.

The conditions of series [1]: Weweres et al. 1987; cited from earlier work.
Series [2] in a line: In vivo activity: body weight change in pituitary gland-removed rats. Further details: species or system Sprague-Dawley rats. To be noted: subcutaneous 5 μg per rat every day (Eutropin), day 7. On the procedure: Pituitary gland-removed Sprague-Dawley rats were used as experimental animals and divided into three groups of seven. To the hypophysectomyzed Sprague-Dawley rats, the human growth hormone/alpha-1 antitrypsin monovariant fusion [T109: α1AT(P357N)/hGH] prepared in Example 2 and human growth hormone (Eutropin, LG Life Sciences Ltd, Korea) were subcutaneously injected at doses of 18 μg and 5 μg per rat, respectively, every day. For a control, PBS was used. The rats were weighed every day after being injected.

Series [3] can be described thus: Pharmacokinetics of hGH and hGH/alpha-1 antitrypsin fusions (serum ELISA). To be noted: Sprague-Dawley rats, subcutaneous, 200 μg/kg (Scitropin control). In kind it is in vivo. As to the method:
An anti-human growth hormone monoclonal antibody (Medix Biochemica, Finland) was diluted to a concentration of 1-5 μg/mL in phosphate buffered saline (PBS) and the dilution was aliquoted in an amount of 100 μL/well onto a 96-well plate (Nunc, Denmark) and incubated at room temperature for 15-18 hrs. After the antibody remaining suspended was removed, PBS containing 1% bovine serum albumin was plated in an amount of 250 μL/well and incubated at room temperature for 2 hours. The plates were washed three times with wash buffer (0.05% Tween 20, PBS) and the solution was aspirated. Samples were diluted in PBS containing 1% bovine serum albumin and added to the 96-well plates before incubation at room temperature for 2 hrs. The 96-well plates were washed five times with wash buffer and 100 μL of the human growth hormone monoclonal antibody-biotin conjugate prepared using sulfo-NHS-biotin (Pierce biotechnology, U.S.A.) was added to each well of the 96-well plates and then incubated at room temperature for 2 hrs. The plates were washed five times with wash buffer and incubated with streptabidin-HRP at room temperature for 30 min. Again, the plates were washed five times with wash buffer and reacted with 100 μL of a mixture of TMB (3,3′,5,5′-tetramethylbenzidine) and hydrogen peroxide per well for 30 min in a dark place. To each well was added 100 μL of 1 M sulfuric acid to terminate the reaction, followed by measuring absorbance at 450 nm on a VersaMax microplate reader (Molecular Device, U.S.A.). Values for each sample were calculated by regression analysis after a standard curve was plotted for a reference material.
Sprague-Dawley rats were used as experimental animals and three of them were administered with human growth hormone while five rats were assigned to each of the fusion-administered groups. The human growth hormone/alpha-1 antitrypsin fusion [T109wt: α1AT/hGH], the human growth hormone/alpha-1 antitrypsin monovariant fusion [T109: α1AT(P357N)/hGH], and the human growth hormone/alpha-1 antitrypsin divariant fusion [T109T: α1AT(P357N, S359T)/hGH], all prepared in Examples 1-3, were subcutaneously injected at a dose of 720 μg/kg into respective groups of Sprague-Dawley rats. The samples were diluted in PBS before injection. Blood samples were taken at 0, 1, 2, 4, 8, 12, 16, 24, 30 and 48 hrs after the injection, and centrifuged to obtain sera. For a control, Scitropin (SciGen, Singapore), a kind of human growth hormone, was subcutaneously injected at a dose of 200 μg/kg. PBS was used as a diluent. Blood samples were taken at 0, 0.33, 1, 2, 5, 8, 12, 18, 24, 30 and 48 hrs after the injection, and centrifuged to obtain sera. Each sample was analyzed in the same manner as the enzyme immunoassay of Test Example 1.

Series [4] in a line: Pharmacokinetics of IFN-α and IFN-α/alpha-1 antitrypsin monovariant fusion (serum ELISA). Format: in vivo. To be noted: Sprague-Dawley rats, subcutaneous, 60 μg/kg (Intermax alpha control). As to the method: The enzyme immunoassay of human interferon alpha (IFN-α) and human interferon alpha/alpha-1 antitrypsin monovariant fusion was conducted with Human IFN-α Matched Antibody Pairs for ELISA (bender Medsystems, Austria). The IFN-α antibody (10 μg/ml) was allowed to adhere to 96-well plates and blocked as described in Test Example 1-1. A dilution of the sample was reacted with the antibody at room temperature for 2 hrs with shaking. An anti-IFN-α-HRP conjugate was plated in an amount of 50 μL/well and reacted with the antibody at room temperature for 2 hrs with shaking. Subsequent processes were conducted in the same manner as in Test Example 1-1.
Sprague-Dawley rats were used as experimental animals and five rats were assigned to each test group. The human interferon alpha/alpha-1 antitrypsin monovariant fusion [T502: α1AT(P357N)/IFN-α] prepared in Example 4 was subcutaneously injected at a dose of 200 μg/kg into Sprague-Dawley rats of one test group, 0, 0.33, 1, 2, 5, 8, 12, 18, 24, 30, 48, 72 and 96 hrs after which blood samples were taken, and centrifuged to obtain sera. […] Each sample was analyzed in the same manner as the enzyme immunoassay of Test Example 1.

Series [5] is described as follows: Pharmacokinetics of G-CSF and G-CSF/alpha-1 antitrypsin variant fusions (serum ELISA). In kind it is in vivo. To be noted: Sprague-Dawley rats, subcutaneous. On the procedure: The same procedure as in Test Example 1 was repeated with the exception that an anti-granulocyte colony-stimulating factor (G-CSF) monoclonal antibody (RND systems, U.S.A.), instead of the anti-human growth hormone antibody, was diluted to a concentration of 1-5 μg/mL and granulocyte colony-stimulating factor polyclonal antibodies-biotin conjugate (RND systems, U.S.A.), instead of the human growth hormone monoclonal antibody-biotin conjugate, was used.
Sprague-Dawley rats were used as experimental animals and three of them were administered with granulocyte colony-stimulating factor while five rats were assigned to each of the fusion-administered groups. The granulocyte colony-stimulating factor/alpha-1 antitrypsin divariant fusion [T602S: α1AT(P357N, C232S)/G-CSF], and granulocyte colony-stimulating factor/alpha-1 antitrypsin trivariant fusion [T602ST: α1AT(P357N, C232S, S359T)/G-CSF], all prepared in Examples 5-6, were subcutaneously injected at a dose of 340 μg/kg into respective groups of Sprague-Dawley rats. Blood samples were taken at 0, 1, 2, 4, 8, 12, 16, 24, 30, and 48 hrs after the injection, and centrifuged to obtain sera. For a control, Filgrastim (Gracin, Jeil Pharmaceutical Co. Ltd. Korea), a commercially available granulocyte colony-stimulating factor, was subcutaneously injected at a dose of 100 μg/kg. Blood samples were taken at 0, 1, 2, 4, 8, 12, 18, 24, 30 and 48 hrs after the injection, and centrifuged to obtain sera. Each sample was analyzed in the same manner as the enzyme immunoassay of Test Example 1.
Background: An ELISA detects its analyte on a solid surface through an enzyme-linked reagent.

Another series relates to leucocytes. As to the kind of experiment: In vivo activity: changes in leucocyte level. To be noted: Sprague-Dawley rats. As to the method:
Sprague-Dawley rats were used as experimental animals and divided into five groups of five each. To the Sprague-Dawley rats, the granulocyte colony-stimulating factor/alpha-1 antitrypsin divariant fusion [T602S: α1AT(P357N, C232S)/G-CSF] prepared in Example 5 was subcutaneously injected at doses of 340 μg/kg and 1,700 μg/kg. To another groups of rats, the granulocyte colony-stimulating factor/alpha-1 antitrypsin trivariant fusion [T602ST: α1AT(P357N, C232S, S359T)/G-CSF] prepared in Example 6 and the granulocyte colony-stimulating factor Filgrastim (Gracin, Jell Pharmaceutical Co. Ltd. Korea) were subcutaneously injected at doses of 1,700 μg/kg and 100 μg/kg, respectively. Blood samples were taken from the tail on 3 days before experiment and on 1, 2, 3, 4 and 5 days after the injection and leucocytes were counted using Hematology Analyzer (Pentra 120).

Series [6] relates to Murine myeloblastic NFS-60 cells. As to the kind of experiment: In vitro activity in NFS-60 cells (MTS method). Format: cell-based. On the procedure: The rat lymphoma cell line (NB2 cell) was maintained in RPMI1640 supplemented with 10% HS (Horse serum), 10% FBS, 2-mercaptoethanol and antibiotics at 37° C. under a 5% CO2 condition. For 24 hrs before experiment, NB2 cells were incubated in RPMI 1640 supplemented with 10% HS. Thereafter, the NB2 cells were washed once with 1×DPBS (Dulbecco's Phosphate Buffered Saline), and plated at a density of 2×10^4 cells/100 μL/well in 5% HS-supplemented RPMI 1640 in 96-well plates (Corning, U.S.A.) with final volume of 100 μL. A series of concentrations of the samples were added in an amount of 20 μL to each well of the 96-well plates, followed by incubation at 37° C. for 48 hrs under a 5% CO2 condition. Subsequently, 20 μL of an MTS solution (Promega, U.S.A.) was added to each well of the 96-well plates and allowed to react at 37° C. for 3 hrs under a 5% CO2 condition. The reaction was terminated by adding 20 μL of 10% SDS (sodium dodecyl sulfate) to each well. Absorbance was measured at 490 nm using a VersaMax microplate reader (Molecular Device, U.S.A.).
Murine myeloblastic NFS-60 cells were incubated in RPMI 1640 supplemented with 10% FBS, mouse IL-3 and antibiotics at 37° C. under a 5% CO2 condition. The absorbance of the cells was measured at 490 nm in the same manner as in Test Example 4-1.
A general note: Tetrazolium dyes change colour on reduction, which living cells bring about.

Take alpha-1 antitrypsin: the in vivo half-life in series [1] is 120 to 140 h.

In general, Tmax refers to the time at which the peak concentration occurs. “human growth hormone [reference compound]”: the weight gain entry in series [2] is reported as “about 10.2%”. Moreover, in series [3], the Tmax was 1 h and the “serum half-life (t1/2)” value came out at 0.8 h.

With “human interferon alpha [reference compound]”, in series [4], the Tmax is 1.4 h and the “serum half-life (t1/2)” value worked out at 3.4 h.

B1: Filgrastim (protein, chains of the INN, looked up)
chain: MTPLGPASSLPQSFLLKCLEQVRKIQGDGAALQEKLCATYKLCHPEELVLLGHSLGIPWAPLSSCPSQALQLAGCLSQLHSGLFLYQGLLQALEGISPELGPTLDTLQLDVADFATTIWQQMEELGMAPALQPTQGAMPAFASAFQRRAGGVLVASHLQSFLEVSYRVLRHLAQP
notes: Filgrastim (Gracin, Jeil Pharmaceutical), a commercially available granulocyte colony-stimulating factor
B1: in series [5] (100 μg/kg (Filgrastim control)), the Tmax was 1.8 h and the “serum half-life (t1/2)” value is 1.8 h. Moreover, the “leucocyte count time course” value in the series on leucocytes (subcutaneous, 100 μg/kg) was “peak level at Day 1 and then decrease to the base line from Day 2”.

B2: granulocyte colony-stimulating factor/alpha-1 antitrypsin divariant fusion (protein)
chain: EDPQGDAAQKTDTSHHDQDHPTFNKITPNLAEFAFSLYRQLAHQSNSTNIFFSPVSIATAFAMLSLGTKADTHDEILEGLNFNLTEIPEAQIHEGFQELLRTLNQPDSQLQLTTGNGLFLSEGLKLVDKFLEDVKKLYHSEAFTVNFGDTEEAKKQINDYVEKGTQGKIVDLVKELDRDTVFALVNYIFFKGKWERPFEVKDTEEEDFHVDQVTTVKVPMMKRLGMFNIQHSKKLSSWVLLMKYLGNATAIFFLPDEGKLQHLENELTHDIITKFLENEDRRSASLHLPKLSITGTYDLKSVLGQLGITKVFSNGADLSGVTEEAPLKLSKAVHKAVLTIDEKGTEAAGAMFLEAINMSIPPEVKFNKPFVFLMIDQNTKSPLFMGKVVNPTQKGGGGSTPLGPASSLPQSFLLKCLEQVRKIQGDGAALQEKLCATYKLCHPEELVLLGHSLGIPWAPLSSCPSQALQLAGCLSQLHSGLFLYQGLLQALEGISPELGPTLDTLQLDVADFATTIWQQMEELGMAPALQPTQGAMPAFASAFQRRAGGVLVASHLQSFLEVSYRVLRHLAQP
modifications: T602S [alpha-1AT(P357N, C232S)/G-CSF]
notes: G-CSF fused to C-terminus of alpha-1 antitrypsin divariant 2 P357N, C232S
One may read the EC50 as the midpoint of the concentration-response curve. Read a high EC50 as a less potent agent. For the molecule B2, in series [5] (340 μg/kg), the Tmax amounted to 13.6 h and the “serum half-life (t1/2)” value amounted to 5.1 h. Besides, in series [6], the concentration giving a half-maximal response (EC50) worked out at 0.0781 nM. Besides, the “leucocyte count time course” value in the series with leucocytes (subcutaneous, 340 μg/kg) was “peak level on Day 2 and then decrease from Day 3”. Also, in the series on leucocytes (subcutaneous, 1,700 μg/kg), the “leucocyte count time course” value was “remained high until Day 3 and started to decrease on Day 4”.

B3: granulocyte colony-stimulating factor/alpha-1 antitrypsin trivariant fusion (protein)
chain: B2 chain with S359T
modifications: T602ST [alpha-1AT(P357N, C232S, S359T)/G-CSF]
notes: G-CSF fused to C-terminus of alpha-1 antitrypsin trivariant P357N, C232S, S359T
Consider B3, for which, in series [5] (340 μg/kg), the Tmax is 16 h and the “serum half-life (t1/2)” value is 4.5 h. The molecule further returned an EC50 in series [6] of 0.0976 nM. Also, the “leucocyte count time course” value in the series on leucocytes (subcutaneous, 1,700 μg/kg) is “remained high until Day 3 and started to decrease on Day 4”.
